We go through 68 sequences from the domain aggregation screens of Martell et al. (2025).

Bounds are passed on as bounds.

The nature of the data set: soluble fraction after stress (log2 fold change); higher = more stays soluble; pooled small domains, quantitative proteomics. Particulars: stress: pH 4. The essentials: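 High-throughput quantitative proteomics was run on pooled custom libraries of small protein domains following pH 4 stress. Fold changes are on a log2 scale; higher values mean more of a domain remained soluble. The fold change in soluble amount is taken as a measure of aggregation propensity.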
For the sequence “HMNKLSISALAETVSTKRKEKSMTQQDLSDATGINRALISRLEQKDFIPSIPQLEKLEEILGFELEEVF”, the “soluble fraction (log2)” value was -0.998.

Regarding “HMNKMHKLPSVSEILNKVRLQKIHNESFIKFKIKEEIDRYRKLAKKDQLFLSRDEITYEIIEKLLNFSMPS”, the “soluble fraction (log2)” value was -0.771.

For the sequence “HMNKMIDAPDLTGLSLEDAKLVLEANKLQLGTVSHEPSDKPEDVVISQDPMEGQEIQQGGKVNLVVSYGD”, the “soluble fraction (log2)” value was -0.104.

For the sequence “HMNKNNLRNVSSKIRKSRRVLNLSQAELSKKLDISPSYLNLIESGKRPITVPLLIKLGNILGISLKDL”, the “soluble fraction (log2)” value worked out at 0.201.

On to “HMNKNQIGTNAGIVWKLLSDNVHWEYDKLKHASGLSDRDLNAAIGWLAREDKIDFDIDEQHDRLFL”, for which the “soluble fraction (log2)” value is -0.255.

With “HMNKPKIIINSVDDSVFSDYVKDSLSIAEVARSIGIDNNKINTSVYREIHKRIDSLKLDTSHFTGGAWN”, the “soluble fraction (log2)” value is -0.634.

Regarding “HMNKPLFVYPNPVHQGKINLSKATNFMVVDLLGQTVNKTNYGKDFSIDNLPNGVYFIKTTEGEIIKFMK”, the “soluble fraction (log2)” value is -0.496.

Take “HMNKQEFLNTLRIIFKKANVLDVESIIDVYEEHFAVGYEKGLNDEQIIKSLGTPKEIYTSYVEAGI”: the “soluble fraction (log2)” value was -1.16.

“HMNKSGVVLIRVTVDASGRVTSAAYEPKGSTTSDVELVAEARKAALRTRFTESRTVIEGGVITYIFKL”: the “soluble fraction (log2)” value is -0.0968.

Consider “HMNKSYTVPDVRGMTVEEAQEAEGVKDIFTVHVQGTRKTDEYQPGQIVEQDPIAGRTRKSNFVIEVYVAE”, for which the “soluble fraction (log2)” value is -0.237.

With “HMNKTQLQIEDEVLKPLIAEIFSKSKGRFGARKIRSKLMGLGYTASERRILRLMKELGLSSAG”, the “soluble fraction (log2)” value was at least 0.43.

On to “HMNKTVKIPNVSNLSREDAESVLKENGISVNSEVKQIESDTIEKGKVVKTDPSIGTSVKKGRSITIYVSSG”, for which the “soluble fraction (log2)” value is 0.134.

“HMNKWMQLASEEDKKLFNEAPKEIQDSITESAKFFDIRTKADVDTFWANTGLRQMKQQAMLNESFVNEY”: the “soluble fraction (log2)” value was -0.482.

As to “HMNLDMVINKIGIVTEDIKQDKIGEVKVLGKRWSAYSNTELKKDEKVKILSIDGVKLKVEKI”, the “soluble fraction (log2)” value worked out at 0.413.

As for “HMNLGAHVYWRNHRAYGDFREYEDVGGGREALALPGSTWGTKDPRVAQALFAARLTEFQEARVGR”, the “soluble fraction (log2)” value is -0.148.

For “HMNLGVIYSLKAEVRSEPNTFSTRLFEVHEGLKVSINQLENDWVEIELLDGKTGWISNDQIRLI”, the “soluble fraction (log2)” value was -0.772.

Regarding “HMNLIFFSENLSTFRKEKGWTQSELAEKLGVKANTISNYEKGISTPDYKIIAKLRELFEMPTDVLLYSNLS”, the “soluble fraction (log2)” value is -0.97.

As for “HMNLLDYDFFEKMSSKEQEEIVEKVYIDFLNKSTGTNSPFYLKLFEKGKKSYIVNWLNENNF”, the “soluble fraction (log2)” value is -1.06.

With “HMNLLSPREKQSLTLYASGLTLREVASELKLSPNSVGKFISRGKFKLNKSGAIVNSKTSIYLELKKRNLI”, the “soluble fraction (log2)” value was 0.108.

As for “HMNLNESVELGQELLSQALAQLGIRGELSPSTIDKLLAESSAKSMEELYADIGIGKRMPALVARHIFGLMD”, the “soluble fraction (log2)” value is -0.491.

For the sequence “HMNLQAYQSVLDKLNEEYGTTFRFPTEEELHEVGLTNTVDPRTATVSATEFEKYMRPIAERISQANL”, the “soluble fraction (log2)” value was -0.315.

Take “HMNLSAREWTSADGSRTFQGELTGFQDGKVKVRRSDGKSLVFAIELLSESDQQFIKTNQLVIAKKDED”: the “soluble fraction (log2)” value was -0.752.

Take “HMNLYHALDQQGEVYLTIPPRQSGRGKVTLMIDGRVREMDAMTDGDALKTGSKVRVTEILDENALKVEAM”: the “soluble fraction (log2)” value is -0.0493.

“HMNMAEETLDTAAKILKAAEEEFMEKGYGNAKMMSIAARAGVSHSMLHYYYRSKGKLFQMIFDEKA”: the “soluble fraction (log2)” value was -1.06.

“HMNMAEQGISLDSEAGKARFVSQALPLLKQLPDGVFKQRMLNQLADRVEVTADFIAQQLAQLKAA”: the “soluble fraction (log2)” value is -0.266.

With “HMNMAVELEDGTQIFVFSEDGEFAGKRAVIADEEGRPTEENAPAGTHTLRDGRSIVVGEGGVIESVVET”, the “soluble fraction (log2)” value was -0.708.

As to “HMNMEYQKAINHIVQMVKDGQLIVGSKIPSERDLSESLGIGRNSTREAISILRGMGLVESRHGSGNYIAKD”, the “soluble fraction (log2)” value is 0.22.

For the sequence “HMNMGEKIRSLIGQFGVTSEDLKNLSVANLLIRMNQEAGDSKTKGILASLLETVNKAGVGNLTPDALGIK”, the “soluble fraction (log2)” value turned out to be 0.064.

Turning to “HMNMLGEQVRNIRKSRGFTLKALAEQTGLSIGYISQIERNLTDPSLSTLRKISAALDVPTYLFMG”, the “soluble fraction (log2)” value came out at 0.0605.

Consider “HMNMLGSNIKYLRNRHKLSQQELSEKLGVPRSSLSDYERGHTQVGLDSLIKLADIFDVKIDDLLRSNLSHR”, for which the “soluble fraction (log2)” value is -0.261.

For the sequence “HMNMPHEIDANFISSLGRLIDNHGKNYGDFQIFREMFLDYFPRFDELSSNNKEKINRRLYKFFETLFG”, the “soluble fraction (log2)” value is -1.44.

Regarding “HMNMVEESVKKSSQWAVFEPNTISTWVKIQAMIENYLYQKWKEGALAGAKPEHAFFVKVGLGETM”, the “soluble fraction (log2)” value was found to be 0.0622.

For the sequence “HMNNEISINGNKIYFNKNISKVFIYDISGKLIKHKNNFNNNFIDLSEFNSAFYIIKALDINENYTTKKIFL”, the “soluble fraction (log2)” value is -0.597.

On to “HMNNFTPEHLEKDIEGSLFFRRLKETAREEPGSLTVAQKDFIQMWHDQADGVYTLRQVFVQTAFDHVRSL”, for which the “soluble fraction (log2)” value is 0.22.

On to “HMNNFTQSALDTIDGIGKRRKKLLLNHFGSVKLIENASIEDIKKIDGISDLVANKIYNFFNKN”, for which the “soluble fraction (log2)” value was -0.173.

Take “HMNNGAEIGAEIRSLRKARGLTLEDLAAKIGRSVGYISQVERGISPLTIPNLKAIAEVLGVGINWFFRGEA”: the “soluble fraction (log2)” value is 0.228.

As to “HMNNILNYTIAELMEILKIDDLETENVINSSNNLINKSINENNFPLAEFYEDVKNNLIEFIETFDS”, the “soluble fraction (log2)” value is -1.08.

With “HMNNLELSEEEKSVLTIIEKEGLIELDKLKTKLELSNKKWDKTLKFLTKNKLAKVVKNDNGLFVEL”, the “soluble fraction (log2)” value stood at 0.0993.

On to “HMNNLLEDIKARLMAQAEAGGHIDTETELAEHFGVTRYRIRKELDLLSQMGLLRRQPKNGIEVLTV”, for which the “soluble fraction (log2)” value was found to be 0.22.

Regarding “HMNNLNDIIEIIRIYAKNYARNNPSWNHSELINRIRDKALGEAEDYNIRLSEEDLALITELSLRGL”, the “soluble fraction (log2)” value was -1.24.

As for “HMNNMVNTLLKLLAEQDVLRGIVRRFTPSSVFVFLQNEEVEVELPLQGRSLAPGQLVELTQEGASVALKRL”, the “soluble fraction (log2)” value was -0.679.

Regarding “HMNNPLLDKVYQLMKQNNITEEEIVRAVAMKGYFPDDMKLGDYPDDFIDGVLIGAWDQIKQFIINNISPFK”, the “soluble fraction (log2)” value was -0.359.

Take “HMNNSDIDITVGKNSISINNPNRTNIIIYSSNGMLIDSSKNASYKRNLPSGIYIVKSGSSTHKVIV”: the “soluble fraction (log2)” value is at least 0.43.

As for “HMNNTIKFFVSQDDDSTRLDVFLSKKIENLTRSNIKKFINLNNVKINKATINSPSKKVKLYDEIEIKFSS”, the “soluble fraction (log2)” value was -1.19.

In the case of “HMNNTIKFSVDSQNSGKRLDIFLTENIKNYTRSFLKKLIENRQVKLNNNFIISPSERVKFKDQININILQ”, the “soluble fraction (log2)” value amounted to 0.199.

“HMNNVDIMGRMVYDDQHREVINFGKYKGVLVTEVLKKDPGYFSWIQQGDFPSDMKRIMMAIKLRM”: the “soluble fraction (log2)” value is -0.72.

Consider “HMNNVDQLIEQYKTLPGGLLPLLHAIKHALGYIPESTVGSIAKGFNLSRAEVHGVISFYHDFNTQP”, for which the “soluble fraction (log2)” value is -0.365.

On to “HMNPAYTDSRMKTFLEELPVMKASLSQKHVTRFLVWQEYIGRHPDGYGKSQFFYHLKQNLVAAKG”, for which the “soluble fraction (log2)” value was 0.0452.

Take “HMNPDTERIREFVAVSLKNRKVATSGEIQNMIVKQFKNFKLKSHGYSNMKSFLSSIDKIQLNSNGKYSLK”: the “soluble fraction (log2)” value was determined as 0.0764.

Consider “HMNPEDDLLKAIIMKYFSNAQVQVDKNVIEYLLKRVDRDYQNLYNILEKINILSLQRKSKITTHLIRDIM”, for which the “soluble fraction (log2)” value was -0.624.

Consider “HMNPFLELTEREMDVLRLIAIGRNNQEIASELVISEKTVKTHITNIFSKLHFKDRTQAAAYAWQSGIVR”, for which the “soluble fraction (log2)” value is -1.07.

Regarding “HMNPHGVAIIDVRKGKASTLRSLATSVRSLGEWDQLKIPIFNLESLTSLVLWHGLDAIVKEPESLQSNLIL”, the “soluble fraction (log2)” value was -0.222.

Regarding “HMNPHIQFWSLLRRQPDYNSAYKDELKAMFVWQWSGEKTESLNEFYKTDPYRYKSMLMDMRNRAL”, the “soluble fraction (log2)” value was -0.354.

For “HMNPIDAHVGARVRLRRMLIGMSQEKLGELLGVTFQQIQKYEKGANRIGASRLYEVSRVLDVPVQYFFDDM”, the “soluble fraction (log2)” value was -0.436.

Consider “HMNPLDGTSVHPESYEAAEKLLKKQGFSLEDISGGKLTGLSLTIKDYARLAKELEIGEITLRDIVKELEK”, for which the “soluble fraction (log2)” value was -0.747.

As to “HMNPLHYKAAHWVREGLFDDLKSFVELETRINSIFEEKDRGDVFEIFIEGYRSFSKWRALVLRLA”, the “soluble fraction (log2)” value is -0.44.

“HMNPNEVQIPDLVNKTEEEAEQILKDLKLKLVVKSEEYDENIEKGKIISQDPTYKENYKIKEHSEISVIIS”: the “soluble fraction (log2)” value came out at 0.0816.

With “HMNPNPFVNLSPRELEVLNLLFKGYGVLEISNELNIGQTTASTFKSRILKKTSTHSVVELIKLAEQYGFIP”, the “soluble fraction (log2)” value is -0.847.

In the case of “HMNPNPYIVLGVDKSMPFGEIKKVYQRKRREFHPDSLVAKGLPDELLQKAQDKFIAIQEAYKSIEKNQV”, the “soluble fraction (log2)” value stood at 0.0331.

On to “HMNPNSIDEKLKLLSNREKEVAILVLKKLSYFEISEQLNITIRTVKAHTKNIYEKFNVSNRLAFLLLFN”, for which the “soluble fraction (log2)” value is -0.209.

For “HMNPSAFSEYSFELLQSALLKKKIDENLSNQTIARDAGVSEAFVQKVLTNNVKRPSVKNRVRMISYLGLD”, the “soluble fraction (log2)” value is 0.00228.

As to “HMNPSFTMGTRIKEYIDAHYLEDLKLADIAEALHINLYYLSHTFKDLTGSSPMQYIIRRRIEE”, the “soluble fraction (log2)” value was -0.603.

Consider “HMNPSPYLRRHLSGDWGDLDEDDRRSNDAALASGEARLLSSYQVDPDLKLWIITEWDRSVTTLLLPSE”, for which the “soluble fraction (log2)” value is at least 0.43.

“HMNPTLPYGFAKRHGVILLEAGEVAVVGLREGADPAALIETRRALGRPLRVEPLDQATFDRRLSQVYA”: the “soluble fraction (log2)” value was -0.15.

Regarding “HMNPTSLTFRSNVKDGKVYVDGIFKGSSDLDFDLPKGRHSIRIEKDGYVPFAKTINLIKALVIDFNMEKA”, the “soluble fraction (log2)” value is 0.123.

On to “HMNPTTQIQYNLPKSEFVSIYIYDLIGNRVKSLINNYQDAGYKSVYWDAMNDLGQPVSAGMYIY”, for which the “soluble fraction (log2)” value was -0.0442.

As for “HMNQKKFIQADYEDRLFDHLAFEVKDMEKIISMMRREKFTITDEPFRLSPTGSLIAFVEDPDRTLIELIER”, the “soluble fraction (log2)” value was -0.522.

Consider “HMNQNAMIGAHIRNLRLAKKLTLKQLSDESGLSVGFLSQLERGMSSIAIDTLARLAHILGADLSSFF”, for which the “soluble fraction (log2)” value is -0.214.
